One substance from paper PMC7987177 can be followed below.

The target of experiment [1] is wild-type Aplysia Kv1 voltage-gated potassium channel subunit, full-length (aKv1/FL) (Aplysia).
The target is the same in experiment [2]. This is another data set of the same source.

Take “Opto-aKv1/SL/V400D (dominant-negative, short-length Opto-aKv1 subunit: aKv1 N-terminus, VfAu1 LOV domain, aKv1 from the T1 domain on, pore mutation V400D)”: the reduction in current density at +80 mV in cerebellar granule cells electroporated with both constructs, after 1.5 hours of blue light in experiment [1] was 80%. In experiment [2], this substance returned a suppression of the fast inactivating aKv1/FL whole-cell current in co-transfected CHO cells after 1.5 hours of blue light of 70%.
